B1: DNA repair protein RAD51 homolog 1 (Homo sapiens), Q06609 (parent)
chain: MAMQMQLEANADTSVEEESFGPQPISRLEQCGINANDVKKLEEAGFHTVEAVAYAPKKELINIKGISEAKADKILAEAAKLVPMGFTTATEFHQRRSEIIQITTGSKELDKLLQGGIETGSITEMFGEFRTGKTQICHTLAVTCQLPIDRGGGEGKAMYIDTEGTFRPERLLAVAERYGLSGSDVLDNVAYARAFNTDHQTQLLYQASAMMVESRYALLIVDSATALYRTDYSGRGELSARQMHLARFLRMLLRLADEFGVAVVITNQVVAQVDGAAMFAADPKKPIGGNIIAHASTTRLYLRKGRGETRICKIYDSPCLPEAEAMFAINADGVGDAKD
partner: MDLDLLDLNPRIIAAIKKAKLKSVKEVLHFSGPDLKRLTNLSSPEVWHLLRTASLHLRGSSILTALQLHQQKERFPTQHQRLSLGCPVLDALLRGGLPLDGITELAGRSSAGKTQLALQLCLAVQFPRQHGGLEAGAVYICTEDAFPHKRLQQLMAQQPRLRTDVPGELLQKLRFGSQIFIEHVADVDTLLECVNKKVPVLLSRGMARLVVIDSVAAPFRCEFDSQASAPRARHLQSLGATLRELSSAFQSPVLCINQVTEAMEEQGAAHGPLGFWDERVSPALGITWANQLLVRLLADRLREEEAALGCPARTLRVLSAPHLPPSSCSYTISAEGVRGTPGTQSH
B2: DNA repair protein RAD51 homolog 3 (Homo sapiens), O43502 (parent)
chain: MRGKTFRFEMQRDLVSFPLSPAVRVKLVSAGFQTAEELLEVKPSELSKEVGISKAEALETLQIIRRECLTNKPRYAGTSESHKKCTALELLEQEHTQGFIITFCSALDDILGGGVPLMKTTEICGAPGVGKTQLCMQLAVDVQIPECFGGVAGEAVFIDTEGSFMVDRVVDLATACIQHLQLIAEKHKGEEHRKALEDFTLDNILSHIYYFRCRDYTELLAQVYLLPDFLSEHSKVRLVIVDGIAFPFRHDLDDLSLRTRLLNGLAQQMISLANNHRLAVILTNQMTTKIDRNQALLVPALGESWGHAATIRLIFHWDRKQRLATLYKSPSQKECTVLFQIKPQGFRDTVVTSACSLQTEGSLSTRKRSRDPEEEL
partner: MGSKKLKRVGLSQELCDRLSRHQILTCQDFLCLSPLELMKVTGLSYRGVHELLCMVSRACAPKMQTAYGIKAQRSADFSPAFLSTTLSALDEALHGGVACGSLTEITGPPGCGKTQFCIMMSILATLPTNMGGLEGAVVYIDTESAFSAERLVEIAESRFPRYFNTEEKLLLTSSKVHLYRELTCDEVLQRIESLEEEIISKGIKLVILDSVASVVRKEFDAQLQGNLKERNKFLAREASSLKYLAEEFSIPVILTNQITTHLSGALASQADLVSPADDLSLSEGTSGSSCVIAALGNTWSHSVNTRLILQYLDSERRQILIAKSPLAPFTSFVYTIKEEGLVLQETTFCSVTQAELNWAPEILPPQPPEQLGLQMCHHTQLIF
B3: DNA repair protein RAD51 homolog 3 (Homo sapiens), O43502 (parent)
chain: B2 chain
partner: B1 partner
B4: DNA repair protein XRCC3 (Homo sapiens), O43542 (parent)
chain: B1 partner
partner: B2 chain
B5: DNA repair protein XRCC3 (Homo sapiens), O43542 (parent)
chain: B1 partner

Variants of: B1
Settings: with xrcc3_human XRCC3, O43542

Row | effect of a mutation on the interaction | Variant
1 | decreasing interaction strength | A79D
2 | with no effect | A55V

Variants of: B2
Settings: with ra51b_human RAD51B

Row | effect of a mutation on the interaction | Variant
3 | disrupting interaction strength | C135R

Variants of: B3
Settings: with xrcc3_human XRCC3, O43542

Row | effect of a mutation on the interaction | Variant
4 | disrupting interaction strength | C135R

Variants of: B4
Settings: with ra51c_human RAD51C

Row | effect of a mutation on the interaction | Variant
5 | disrupting interaction strength | L297P
6 | disrupting interaction strength | V337E

Variants of: B5
Settings: with rad51_human RAD51, Q06609

Row | effect of a mutation on the interaction | Variant
7 | disrupting interaction strength | V337E
8 | disrupting interaction strength | L297P
